Here are results for 29 molecules from patent US20220204611A1 (Amgen, published 2022).

To fix the notation:
T1: human TREM2 (human, UniProt Q9NZC2 19-174, limits assumed)
T1 sequence: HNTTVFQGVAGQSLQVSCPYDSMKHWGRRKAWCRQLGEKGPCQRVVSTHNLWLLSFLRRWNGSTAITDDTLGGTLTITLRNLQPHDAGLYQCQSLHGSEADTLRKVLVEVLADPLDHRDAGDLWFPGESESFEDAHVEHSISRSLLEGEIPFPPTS

B1: V93 (Fab, V domains shown)
VH: EVQLVQSGAEVKKPGESLKISCKGSGYSFTSYWIAWVRQMPGKGLEWMGIIYPGDSDTRYSPSFQGQVTISADKSISTAYLQWSSLKASDTAMYFCARQRTFYYDSSDYFDYWGQGTLVTVSS
VL: DIQMTQSPSSVSASVGDRVTITCRASQGISGWLAWYQQKPGKAPKLLIYAASSLQNGVPSRFSGSGSGTDFTLTISSLQPEDFATYFCQQADSFPRTFGQGTKLEIK
B2: V80 (Fab, V domains shown)
VH: B1 VH with T101N
VL: B1 VL with G31S
B3: V91 (Fab, V domains shown)
VH: B1 VH with G54D
VL: B1 VL with G31S
B4: V92 (Fab, V domains shown)
VH: B1 VH with Y103H
VL: B1 VL with G31S
B5: V81 (Fab, V domains shown)
VH: B1 VH
VL: B1 VL with G31S, W32L
B6: V82 (Fab, V domains shown)
VH: B1 VH
VL: B1 VL with G31S, A51G
B7: V94 (Fab, V domains shown)
VH: B1 VH
VL: B1 VL with G31S, S52A
B8: V90 (Fab, V domains shown)
VH: B1 VH with Y32E
VL: B1 VL with G31R
B9: V83 (Fab, V domains shown)
VH: B1 VH
VL: B1 VL with G31S, D92V
B10: V65 (Fab, V domains shown)
VH: B1 VH with Q99S
VL: B1 VL with G31S
B11: V15 (Fab, V domains shown)
VH: B1 VH with T30A, I50T, Q99S
VL: B1 VL with G31S, S53W, F94Y
B12: V17 (Fab, V domains shown)
VH: B1 VH with T30G, Q99S
VL: B1 VL with G31S, L54R, F94S
B13: V1 (Fab, V domains shown)
VH: B1 VH with Y32S, Q99S
VL: B1 VL with G31S, Q55T, F94Y
B14: V40 (Fab, V domains shown)
VH: B1 VH with T30G, T58V, F110S
VL: B1 VL with G31S, N56L, S93R
B15: V29 (Fab, V domains shown)
VH: B1 VH with T30K
VL: B1 VL with G31S
B16: V2 (Fab, V domains shown)
VH: B1 VH with Y27S, S56G, Q99S
VL: B1 VL with G31S, L54R, S93R
B17: V16 (Fab, V domains shown)
VH: B1 VH with F29M, S56G, Q99S
VL: B1 VL with G31S, S53N
B18: V27 (Fab, V domains shown)
VH: B1 VH with S61A, A97V, Q99S
VL: B1 VL with G31S, N56R
B19: V26 (Fab, V domains shown)
VH: B1 VH with A35G, I50T, F102M, Y112A
VL: B1 VL with G31S, N56R, F94Y
B20: V25 (Fab, V domains shown)
VH: B1 VH with T30G, I50L, Q99S
VL: B1 VL with G31S, Q55A, F94M
B21: V5 (Fab, V domains shown)
VH: B1 VH with I50T
VL: B1 VL with G31S, F94H
B22: V13 (Fab, V domains shown)
VH: B1 VH with T30G, P62A, Q99G
VL: B1 VL with G31S, N56G, F94M
B23: V37 (Fab, V domains shown)
VH: B1 VH with F29H, Q65A, Q99S
VL: B1 VL with G31S, N56W, F94Y
B24: V24 (Fab, V domains shown)
VH: B1 VH with T58V, Q99S
VL: B1 VL with G31S, N56K, R96H
B25: V41 (Fab, V domains shown)
VH: B1 VH with I50T
VL: B1 VL with G31S
B26: V4 (Fab, V domains shown)
VH: B1 VH with T30G, Y60V, Q99S
VL: B1 VL with G31S, S53R, F94Y
B27: V3 (Fab, V domains shown)
VH: B1 VH with T30A, G66D, Q99G
VL: B1 VL with G31S, L54R, S93R
B28: V14 (Fab, V domains shown)
VH: B1 VH with T30G, S56Q, Q99G
VL: B1 VL with G31S, S53R
B29: V36 (Fab, V domains shown)
VH: B1 VH with I34L, Q99S
VL: B1 VL with G31S, L54R, F94Y

Changes are numbered by the printed parent chain.

One test has as its target T1, human TREM2. Description: yeast-displayed Fab FACS, 1st screen 110 nM.
Regarding B1, the “binding signal fold over 6E7 parental” value was determined as 0.35 fold.

Regarding B2, the “binding signal fold over 6E7 parental” value worked out at 0.59 fold.

B3: the “binding signal fold over 6E7 parental” value was 0.25 fold.

Take B4: the “binding signal fold over 6E7 parental” value came out at 0.22 fold.

With B5, the “binding signal fold over 6E7 parental” value turned out to be 0.17 fold.

For the molecule B6, the “binding signal fold over 6E7 parental” value is 0.3 fold.

For the molecule B7, the “binding signal fold over 6E7 parental” value amounted to 0.31 fold.

Regarding B8, the “binding signal fold over 6E7 parental” value was determined as 0.33 fold.

As for B9, the “binding signal fold over 6E7 parental” value was determined as 0.2 fold.

In a further test the target is T1, human TREM2. Put plainly: yeast-displayed Fab FACS, 1st screen 10 nM.
Take B10: the “binding signal fold over 6E7 parental” value is 2.05 fold.

Turning to B11, the “binding signal fold over 6E7 parental” value was found to be 5.23 fold.

As to B12, the “binding signal fold over 6E7 parental” value is 5.37 fold.

With B13, the “binding signal fold over 6E7 parental” value is 1.68 fold.

As to B14, the “binding signal fold over 6E7 parental” value amounted to 4.48 fold.

For B15, the “binding signal fold over 6E7 parental” value amounted to 1.53 fold.

Consider B16, for which the “binding signal fold over 6E7 parental” value came to 2.55 fold.

As to B17, the “binding signal fold over 6E7 parental” value was found to be 4.01 fold.

On to B18, for which the “binding signal fold over 6E7 parental” value is 5.5 fold.

Regarding B19, the “binding signal fold over 6E7 parental” value was determined as 3.57 fold.

Consider B20, for which the “binding signal fold over 6E7 parental” value was determined as 4.23 fold.

Turning to B21, the “binding signal fold over 6E7 parental” value was 2.73 fold.

Take B22: the “binding signal fold over 6E7 parental” value was 1.31 fold.

Consider B23, for which the “binding signal fold over 6E7 parental” value came to 3.46 fold.

Take B24: the “binding signal fold over 6E7 parental” value came out at 2.64 fold.

B25: the “binding signal fold over 6E7 parental” value was 1.74 fold.

For the molecule B26, the “binding signal fold over 6E7 parental” value worked out at 6 fold.

In the case of B27, the “binding signal fold over 6E7 parental” value worked out at 1.97 fold.

As for B28, the “binding signal fold over 6E7 parental” value is 4.71 fold.

Regarding B29, the “binding signal fold over 6E7 parental” value turned out to be 3.38 fold.

The next test concerns the target T1, human TREM2. Put plainly: yeast-displayed Fab FACS, 2nd screen 10 nM.
As for B10, the “binding signal fold over 6E7 parental” value came to 2.75 fold.

Consider B11, for which the “binding signal fold over 6E7 parental” value came to 4.78 fold.

On to B12, for which the “binding signal fold over 6E7 parental” value came out at 5.51 fold.

In the case of B13, the “binding signal fold over 6E7 parental” value was found to be 1.92 fold.

On to B14, for which the “binding signal fold over 6E7 parental” value is 4.16 fold.

On to B15, for which the “binding signal fold over 6E7 parental” value was determined as 1.67 fold.

Turning to B16, the “binding signal fold over 6E7 parental” value worked out at 2.9 fold.

On to B17, for which the “binding signal fold over 6E7 parental” value was 4.04 fold.

Take B18: the “binding signal fold over 6E7 parental” value was 5.69 fold.

Turning to B19, the “binding signal fold over 6E7 parental” value is 3.47 fold.

For B20, the “binding signal fold over 6E7 parental” value was found to be 4.7 fold.

As to B21, the “binding signal fold over 6E7 parental” value is 2.84 fold.

Regarding B22, the “binding signal fold over 6E7 parental” value came out at 1.35 fold.

As for B23, the “binding signal fold over 6E7 parental” value stood at 3.49 fold.

Regarding B24, the “binding signal fold over 6E7 parental” value came out at 2.9 fold.

B25: the “binding signal fold over 6E7 parental” value stood at 1.72 fold.

In the case of B26, the “binding signal fold over 6E7 parental” value worked out at 5.51 fold.

Turning to B27, the “binding signal fold over 6E7 parental” value amounted to 2.24 fold.

On to B28, for which the “binding signal fold over 6E7 parental” value was 4.64 fold.

Turning to B29, the “binding signal fold over 6E7 parental” value was determined as 3.44 fold.

For a further test, the target named is T1, human TREM2. Put plainly: yeast-displayed Fab FACS, 2nd screen 100 nM.
For the molecule B1, the “binding signal fold over 6E7 parental” value came to 1.05 fold.

In the case of B2, the “binding signal fold over 6E7 parental” value amounted to 0.5 fold.

Regarding B3, the “binding signal fold over 6E7 parental” value turned out to be 0.61 fold.

For B4, the “binding signal fold over 6E7 parental” value was determined as 0.65 fold.

Turning to B5, the “binding signal fold over 6E7 parental” value amounted to 0.23 fold.

With B6, the “binding signal fold over 6E7 parental” value was determined as 0.79 fold.

With B7, the “binding signal fold over 6E7 parental” value amounted to 0.87 fold.

In the case of B8, the “binding signal fold over 6E7 parental” value was 0.36 fold.

For B9, the “binding signal fold over 6E7 parental” value was 0.29 fold.

The target of the next test is T1, human TREM2. Put plainly: yeast-displayed Fab FACS, 2nd screen 2 nM.
As for B10, the “binding signal fold over 6E7 parental” value is 1.29 fold.

B11: the “binding signal fold over 6E7 parental” value worked out at 4.72 fold.

Take B12: the “binding signal fold over 6E7 parental” value was determined as 4.22 fold.

Regarding B13, the “binding signal fold over 6E7 parental” value was 1.29 fold.

As for B14, the “binding signal fold over 6E7 parental” value worked out at 3.41 fold.

On to B15, for which the “binding signal fold over 6E7 parental” value was 0.84 fold.

Turning to B16, the “binding signal fold over 6E7 parental” value stood at 2.23 fold.

B17: the “binding signal fold over 6E7 parental” value was 3.57 fold.

For B18, the “binding signal fold over 6E7 parental” value came out at 5.67 fold.

Take B19: the “binding signal fold over 6E7 parental” value was 2.83 fold.

Take B20: the “binding signal fold over 6E7 parental” value came out at 3.15 fold.

In the case of B21, the “binding signal fold over 6E7 parental” value was 1.25 fold.

Regarding B22, the “binding signal fold over 6E7 parental” value amounted to 1.15 fold.

As for B23, the “binding signal fold over 6E7 parental” value was found to be 3.69 fold.

B24: the “binding signal fold over 6E7 parental” value came out at 1.42 fold.

Turning to B25, the “binding signal fold over 6E7 parental” value came to 0.58 fold.

For B26, the “binding signal fold over 6E7 parental” value stood at 5.88 fold.

B27: the “binding signal fold over 6E7 parental” value was 1.95 fold.

B28: the “binding signal fold over 6E7 parental” value was 2.57 fold.

In the case of B29, the “binding signal fold over 6E7 parental” value was 4 fold.
